In patent publication US20120270297A1, “CULTURING AND GENETIC MANIPULATIONS OF THERMOTOGA SPP” (BOWLING GREEN STATE UNIVERSITY, priority 2011, published 2012):
Where two headings read alike, the source gives them in different places.

Columns and labels:
[1] = crude yeast extract, 37° C., cited from earlier work
T. sp. RQ7 = assay: Selective levels of kanamycin in liquid and solid SVO media; format: cell-based, Thermotoga sp. RQ7; conditions: SVO plates, 48 h of incubation
Method: (§1) One ml of overnight culture was mixed with 25 ml of hot SVO containing 0.3% GELRITE and poured to Petri dishes. Small discs of 7 mm in diameter were cut from Whatman qualitative filter paper and were placed on solidified plates. Various amount of kanamycin (50˜250 μg) was added to the paper discs. After 48 h of anaerobic incubation, sensitive strains would display inhibition zones surrounding the discs. To specify the selective levels of the antibiotic in both liquid and solid media, kanamycin ranging from 50 to 300 μg ml^−1 was supplemented, and the proliferation of bacteria was monitored for up to 72 h.
(§2) We next specified the selective levels of kanamycin in both liquid and solid media. […] However, spontaneous mutations sometimes caused the cultures to become resistant to the antibiotic, and a complete inhibition over a period of 72 h was only possible when the input amount was increased to 150 μg ml^−1. Similar phenomena were also noticed with T. sp. RQ7. On SVO plates, spontaneous mutants of T. maritima and T. sp. […] Based on these observations, for the rest of the study, kanamycin was added at 150 μg ml^−1 to liquid media and at 250 μg ml^−1 to soft and solid media.

T. maritima = assay: as above; format: cell-based, Thermotoga maritima; conditions: liquid SVO
Method: as §1, §2

pUC19 DNA [2] = assay: Restriction assay of heat-purified cell extracts containing the REase; format: biochemical; conditions: for restriction activity retained on storage: heat-purified extract stored at 4° C.
Method: One gram of E. coli wet cells grown at 37° C., containing pJC339 or pJC340 or both, were resuspended in 3 ml lysis buffer (10 mM Tris-HCl, 10 mM MgCl2, 50 mM NaCl, 1 mM DTT, pH 8.0) and were lysed with two passages through a French press at 14,000 pounds per square inch. After centrifugation at 27 k×g for 25 min, the supernatant was transferred to a new tube and heated at 77° C. for 1 h to denature most of the host proteins, followed by another round of centrifugation at 17 k×g for 15 min. The supernatant containing purified Thermotoga proteins was stored at 4° C. Such extracts retained 100% of the restriction activity for up to 5 weeks, and ≧50% of the activity for at least 12 weeks. For expression analysis, heat-purified cell extracts were mixed with loading buffer and were subjected to sodium dodecyl sulfate-polyacrylamide gel electrophoresis (SDS-PAGE) in 15% (w/v) gels. HisDetector Western Blot Kit (Kirkegaard & Perry Laboratories, Inc., Maryland, USA) was used for colorimetric immunodetection of histidine-tagged CTN—0339 protein. For restriction assays, heat-purified cell extracts containing the REase were serially diluted in 2-fold steps with the lysis buffer and were incubated with 5 μg of substrate DNA in a reaction volume of 50 μl. After 1 h of incubation at 50° C., 65° C., or 77° C., the reaction was terminated with 5 μl of stopping buffer (50 mM EDTA, 50% (w/v) glycerol, 0.02% (w/v) bromophenol blue, pH 8.0). Digested DNA fragments were resolved on 1% (w/v) agarose gels. One unit of the REase activity is defined as the quantity required to completely digest 1 μg of pUC19 DNA in 1 h at 77° C. For modification assays, heat-purified cell extracts containing the MTase were serially diluted in 2-fold steps with the lysis buffer and were incubated with 5 μg of substrate DNA in a total volume of 50 μl. After 1 h of incubation at 77° C., the reaction mix was then incubated with 0.5 U of the REase at 77° C. for overnight. One unit of the MTase activity is defined as the quantity required to completely protect 1 μg of pUC19 DNA from the cleavage of the REase for 1 h at 77° C.
The PCR product of CTN—0339 was completely digested by heat-purified REase. Two fragments were generated and were retrieved from agarose gels. The smaller piece was directly analyzed by Sanger sequencing; the larger piece was further digested by NdeI and was inserted into pUC19 at the NdeI-SmaI sites to form pDH22. The insertion region of the constructed vector was sequenced.
To provide further evidence to the functions of the two Thermotoga proteins, we first tested the restriction activity of CTN—0339 at 50° C., 65° C., and 77° C. using pUC19 plasmid DNA prepared from strain XL1-Blue MRF′. […] (FIG. 3). […] (FIG. 3). […]

pUC19 DNA [3] = assay: Modification assay: protection of pUC19 DNA from the REase by CTN_0340 extract; format: biochemical; conditions: 10 μl extract, 77° C. 1 h, then REase overnight at 77° C.
Method: One gram of E. coli wet cells grown at 37° C., containing pJC339 or pJC340 or both, were resuspended in 3 ml lysis buffer (10 mM Tris-HCl, 10 mM MgCl2, 50 mM NaCl, 1 mM DTT, pH 8.0) and were lysed with two passages through a French press at 14,000 pounds per square inch. After centrifugation at 27 k×g for 25 min, the supernatant was transferred to a new tube and heated at 77° C. for 1 h to denature most of the host proteins, followed by another round of centrifugation at 17 k×g for 15 min. The supernatant containing purified Thermotoga proteins was stored at 4° C. Such extracts retained 100% of the restriction activity for up to 5 weeks, and ≧50% of the activity for at least 12 weeks. For expression analysis, heat-purified cell extracts were mixed with loading buffer and were subjected to sodium dodecyl sulfate-polyacrylamide gel electrophoresis (SDS-PAGE) in 15% (w/v) gels. HisDetector Western Blot Kit (Kirkegaard & Perry Laboratories, Inc., Maryland, USA) was used for colorimetric immunodetection of histidine-tagged CTN—0339 protein. […] One unit of the REase activity is defined as the quantity required to completely digest 1 μg of pUC19 DNA in 1 h at 77° C. […] One unit of the MTase activity is defined as the quantity required to completely protect 1 μg of pUC19 DNA from the cleavage of the REase for 1 h at 77° C. […]

pUC19 = assay: Enzyme activity assay of M.TneDI prepared from DH1021 strains; format: biochemical
Method: Cells from 10 ml of the induced DH1021 cultures were harvested by centrifugation and were resuspended in 150 μl of lysis buffer (10 mM Tris-HCl, 10 mM MgCl2, 50 mM NaCl, 1 mM DTT, pH 8.0). Lysozyme was added to a final concentration of 0.3 mg/ml. The cell suspension was subject to 3 freeze-thaw cycles to lyse the cells. Cell lysate was then heated at 77° C. for 30 min to denature host proteins. After centrifugation at 21,130 g for 5 min, the supernatant was recovered and used as M.TneDI preparations for activity assays. Such prepared M.TneDI can be stored at −20° C. in the presence of 10% (v/v) glycerol for more than 2 months.
Plasmid pUC19 extracted from a XL1-Blue MRF′ host was used as the substrate DNA (FIG. 10). Eight micrograms of pUC19 was incubated with 10 μl of the above prepared M.TneDI for 1 h at 77° C., supplemented with 20 μg/ml of S-adenosyl-L-methionine (AdoMet). The DNA was then subjected to restriction digestions of R.TneDI or other Type II REases recognizing CGCG sequence, such as BstUI. […] Based on the growth and the enzyme activity assays, DH10212-3 was identified as the best strain for production of M.TneDI.

With `C[S+](CC[C@H](N)C(=O)[O-])C[C@H]1O[C@@H](n2cnc3c(N)ncnc32)[C@H](O)[C@@H]1O` (stereo partly drawn) [AdoMet, S-adenosyl-L-methionine] as the molecule, how does the “original AdoMet found” value ([1]; 6 days) read?
Its value is ~70%.

And the “original AdoMet found” value ([1]; 15 days)?
The value was ~25%.

Which “kanamycin concentration at which spontaneous mutants rarely showed up” value (T. sp. RQ7) does the source give for `NC[C@H]1O[C@H](O[C@H]2[C@H](O)[C@@H](O[C@H]3O[C@H](CO)[C@@H](O)[C@H](N)[C@H]3O)[C@H](N)C[C@@H]2N)[C@H](O)[C@@H](O)[C@@H]1O` [kanamycin] here?
Its value is 250 µg/mL.

What about the “kanamycin concentration that completely inhibited growth” value (T. maritima; at least 72 h) of the same molecule?
The value was 50 µg/mL.

What about the “kanamycin input needed for complete inhibition despite spontaneous mutations” value (T. maritima; over a period of 72 h) of the same molecule?
The value was 150 µg/mL.

B1: R.TneDI: Type II restriction endonuclease of T. neapolitana encoded by CTN_0339, recognizing CGCG; SEQ ID NO: 13 (protein, listed as Thermotoga neapolitana)
chain: MRKTDPLIDIFKKNKERIDILGKAWDIFYFEGRAPDVGKRRENFIVEMIRKELSHFIKSVNQAPDTERNWDIEITFQDDSTKRYSIKTTEGFSDVKIAWDGFPTKDRILTFNFQADIFYIARNKDKIILCVIDLEKLRDLQREVEKNESKLEEYYSLPSSNTNPRGFGLKSSTVKRLIELSKKEENYLEIDYKPFPVELILKAKEEYFKGWYDLIKELIEKYQQ
Which “extract required to completely digest 1 μg of pUC19 DNA within 1 h” value (pUC19 DNA [2]; 65° C. or 50° C.) does the source give for B1 here?
Its value is 2.5 μl.

And the “extract required to completely digest 1 μg of pUC19 DNA within 1 h” value (pUC19 DNA [2]; 77° C., relative to the amount at 65° C. or 50° C.)?
Its value is “half of the amount”.

What about the “restriction activity retained on storage” value (pUC19 DNA [2]; at least 12 weeks) of the same molecule?
Its value is ≥ 50%.

And the “restriction activity retained on storage” value (pUC19 DNA [2]; up to 5 weeks)?
The value was 100%.

B2: M.TneDI: methyltransferase of T. neapolitana encoded by CTN_0340, modifies CGCG sequences; SEQ ID NO: 14 (protein, listed as Thermotoga neapolitana)
chain: MKRRKSTRTSSFGVKGRESHDSSPFYSRAIYSNFSLPKPSEEDLIENPLPENLLDKVIEGDAREVLKKIPDCSIHLMVTSPPYNVGKEYDEDMTLDEYLEFIEEIMKEVYRVLVWGGRACFNVANLGRKPYIPLHAYLIHLFEKIGFLIRGEIIWDKGEAVSGSSTAWGSWMSPVNPVLRDQHEYIIVMSKGDLKRRKPSDREAKSTITREEFLEFTRSVWKFPPESAKRVGHPAPFPEELPYRCIQLYTFKGDVVLDPFAGVGTTCVAAVKTGRHFVGIEINPEYVKKAEERVKDILSKPTLFEDHC
With B2 as the molecule, how does the “digestion of treated pUC19 DNA by the REase” value (pUC19 DNA [3]) read?
The value was “only partially digested”.

And the “protection of substrate DNA from R.TneDI or BstUI” value (pUC19; 10 μl preparation, 8 μg pUC19, 1 h at 77° C., 20 μg/ml AdoMet)?
The value was “prevents substrate DNA from the degradation”.

What about the “storage time of M.TneDI preparation” value (pUC19; −20° C., 10% (v/v) glycerol) of the same molecule?
Its value is “more than 2 months”.
